For one experiment, the target named is T1, 4H607-bH.
T1 chain: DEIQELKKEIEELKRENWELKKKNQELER
The experiment can be described thus: two-hybrid library CCNG1.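 Further: natural log of median RNA to DNA barcode read ratio; higher means stronger binding.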

The next experiment deals with T2, 4H687-bH.
T2 chain: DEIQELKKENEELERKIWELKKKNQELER
Put plainly: two-hybrid library CCNG1.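 Further: natural log of median RNA to DNA barcode read ratio; higher means stronger binding.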

The next experiment has as its target T3, 4H717-bH.
T3 chain: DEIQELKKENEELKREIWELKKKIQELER
Put plainly: two-hybrid library CCNG1.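 Further: natural log of median RNA to DNA barcode read ratio; higher means stronger binding.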

The target in another experiment is T4, 4H72-bH.
T4 chain: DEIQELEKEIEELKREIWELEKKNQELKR
The experiment can be described thus: two-hybrid library CCNG1.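 Further: natural log of median RNA to DNA barcode read ratio; higher means stronger binding.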

Another experiment addresses T5, 4H754-bH.
T5 chain: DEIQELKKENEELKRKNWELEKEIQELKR
Put plainly: two-hybrid library CCNG1.

In another experiment the target is T6, 4H797-bH.
T6 chain: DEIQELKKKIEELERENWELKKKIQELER
The experiment can be described thus: two-hybrid library CCNG1.

The next experiment addresses T7, 4H883-bH.
T7 chain: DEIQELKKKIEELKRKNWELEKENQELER
Put plainly: two-hybrid library CCNG1.

In a further experiment the target is T8, 4H908-bH.
T8 chain: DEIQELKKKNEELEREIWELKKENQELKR
The experiment can be described thus: two-hybrid library CCNG1.

In a further experiment the target is T9, 4H918-bH.
T9 chain: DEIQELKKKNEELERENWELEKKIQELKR
Put plainly: two-hybrid library CCNG1.

Another experiment addresses T10, 4H953-bH.
T10 chain: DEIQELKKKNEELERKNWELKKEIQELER
Put plainly: two-hybrid library CCNG1.

A further experiment has as its target T11, 4H967-bH.
T11 chain: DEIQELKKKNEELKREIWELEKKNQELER
Put plainly: two-hybrid library CCNG1.

A further experiment has as its target T12, 4H3591-AA.
T12 chain: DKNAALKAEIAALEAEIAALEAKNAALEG
The experiment can be described thus: two-hybrid library CCmax.

The next experiment deals with T13, 4H3628-AA.
T13 chain: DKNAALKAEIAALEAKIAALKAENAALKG
Put plainly: two-hybrid library CCmax. The note with it: mean of both orientations.

The target of the next experiment is T14, 4H3666-AA.
T14 chain: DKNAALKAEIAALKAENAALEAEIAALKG
Put plainly: two-hybrid library CCmax. The note with it: mean of both orientations.

A further experiment deals with T15, 4H3709-AA.
T15 chain: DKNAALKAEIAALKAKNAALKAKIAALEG
Put plainly: two-hybrid library CCmax. The note with it: mean of both orientations.

A further experiment concerns the target T16, 4H391-AA.
T16 chain: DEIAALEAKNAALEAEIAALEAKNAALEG
The experiment can be described thus: two-hybrid library CCmax. The note with it: mean of both orientations.

A further experiment concerns the target T17, 4H3920-AA.
T17 chain: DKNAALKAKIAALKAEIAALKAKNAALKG
Put plainly: two-hybrid library CCmax. The note with it: mean of both orientations.

The target in the next experiment is T18, 4H3939-AA.
T18 chain: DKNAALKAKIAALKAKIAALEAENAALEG
Put plainly: two-hybrid library CCmax. The note with it: mean of both orientations.

The target of another experiment is T19, 4H428-AA.
T19 chain: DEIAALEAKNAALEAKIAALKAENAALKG
The experiment can be described thus: two-hybrid library CCmax. The note with it: mean of both orientations.

The target in a further experiment is T20, 4H478-AA.
T20 chain: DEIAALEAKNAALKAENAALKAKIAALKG
Put plainly: two-hybrid library CCmax. The note with it: mean of both orientations.

Another experiment concerns the target T21, 4H497-AA.
T21 chain: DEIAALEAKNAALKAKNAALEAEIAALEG
Put plainly: two-hybrid library CCmax. The note with it: mean of both orientations.

In the next experiment the target is T22, 4H656-AA.
T22 chain: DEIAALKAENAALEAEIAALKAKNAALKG
Put plainly: two-hybrid library CCmax. The note with it: mean of both orientations.

A further experiment concerns the target T23, 4H675-AA.
T23 chain: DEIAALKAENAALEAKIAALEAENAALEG
The experiment can be described thus: two-hybrid library CCmax.

In the next experiment the target is T24, 4H971-AA.
T24 chain: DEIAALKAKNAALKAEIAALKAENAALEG
Put plainly: two-hybrid library CCmax. The note with it: mean of both orientations.

The target in a further experiment is T25, 4H883-bN.
T25 chain: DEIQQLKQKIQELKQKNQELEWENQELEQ
The experiment can be described thus: two-hybrid library CCNG1.

B1: 4H607-bH (peptide)
chain: DEIQELKKEIEELKRENWELKKKNQELER
On to B1, for which the interaction score was 0.163 with 4H607-bH; -0.72 with 4H687-bH; 0.512 with 4H717-bH; -1.24 with 4H72-bH; -0.342 with 4H754-bH; -1.49 in the experiment with 4H797-bH. Besides, the interaction score is 0.522 in the experiment with 4H883-bH; -1.04 with 4H908-bH; -0.801 with 4H918-bH; -0.825 with 4H953-bH; -2 with 4H967-bH.

B2: 4H3591-AA (peptide)
chain: DKNAALKAEIAALEAEIAALEAKNAALEG
As for B2, the interaction score with 4H3591-AA is -1.51; with 4H3628-AA, -0.555; with 4H3666-AA, -1.67; in the experiment with 4H3709-AA, -0.696; with 4H391-AA it was -2.02; with 4H3920-AA it was 0.759. The interaction score with 4H3939-AA was 1.03; with 4H428-AA it was -1.03; with 4H478-AA, -1.53; with 4H497-AA, -1.86; with 4H656-AA it was -0.984; in the experiment with 4H675-AA it was -1.63. The molecule further showed an interaction score with 4H971-AA of -1.24.

B3: 4H717-bH (peptide)
chain: DEIQELKKENEELKREIWELKKKIQELER
In the case of B3, the interaction score was 0.358 in the experiment with 4H717-bH; -0.629 with 4H72-bH; 0.538 with 4H754-bH; -1.17 in the experiment with 4H797-bH; -0.589 in the experiment with 4H883-bH; -0.103 with 4H883-bN. In addition, the interaction score was -1.59 with 4H908-bH, 0.0812 in the experiment with 4H918-bH, -0.135 with 4H953-bH and -0.767 in the experiment with 4H967-bH.

Source of the values: PMC10397247.
